Experimental findings from the supplement of paper PMC10567573 are described below.

Sequences and labels used below:
B1: ZBED3 (parent)
chain: GPGFHAGTSALWRHLRSAHRRELE
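Also: lentivirally expressed fusions sorted by FACS into six bins by GFP to DsRed ratio, PSI derived from sequencing read proportions per bin multiplied by bin number.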

The data set covers variants of B1. Put plainly: protein stability index of a GFP-peptide fusion (GPS, HEK-293T) (PSI 1-6); higher = more stable. Particulars: c terminus: a fixed tail appended.
As to GPGFHAGTSATWRHLRSAHRRELE [L11T], the protein stability index was 2.16.

With GPGFHAGTSAVWRHLRSAHRRELE [L11V], the protein stability index amounted to 1.99.

For the variant GPGFHAGTSRLWRHLRSAHRRELE [A10R], the protein stability index is 3.4.

GPGFHAGTSVLWRHLRSAHRRELE [A10V]: the protein stability index worked out at 2.6.

Turning to GPGFHAGTSSLWRHLRSAHRRELE [A10S], the protein stability index is 2.52.

For the variant GPGFHAGTSYLWRHLRSAHRRELE [A10Y], the protein stability index is 2.31.

Take GPGFHAGTSILWRHLRSAHRRELE [A10I]: the protein stability index turned out to be 1.85.

With GPGFHAGTSALWRHLWSAHRRELE [R16W], the protein stability index worked out at 1.66.

For the variant GPGFHAGTSALWRHLISAHRRELE [R16I], the protein stability index came out at 2.12.

Take GPGFHAGTSALWRHLVSAHRRELE [R16V]: the protein stability index was 1.84.

With GPGFHAGTSALWRHLNSAHRRELE [R16N], the protein stability index came out at 2.34.

Take GPGFHAGTSALWRHLCSAHRRELE [R16C]: the protein stability index turned out to be 1.62.

GPGFHAGTSALWRHLMSAHRRELE [R16M]: the protein stability index came out at 2.97.

In the case of GPGFHAGTSALWRHLTSAHRRELE [R16T], the protein stability index is 2.23.

As for GPGFHAGTSALWRHLQSAHRRELE [R16Q], the protein stability index was determined as 2.33.

Take GPGFHAGTSALWRHLRNAHRRELE [S17N]: the protein stability index stood at 1.69.

Regarding GPGFHAGTSALWRHLRQAHRRELE [S17Q], the protein stability index amounted to 2.03.

GPGFHAGTSALWRHLRGAHRRELE [S17G]: the protein stability index was 2.6.

As for TPGFHAGTSALWRHLRSAHRRELE [G1T], the protein stability index was determined as 3.33.

Consider DPGFHAGTSALWRHLRSAHRRELE [G1D], for which the protein stability index worked out at 3.87.

With MPGFHAGTSALWRHLRSAHRRELE [G1M], the protein stability index came to 3.18.

In the case of NPGFHAGTSALWRHLRSAHRRELE [G1N], the protein stability index is 3.45.

Regarding FPGFHAGTSALWRHLRSAHRRELE [G1F], the protein stability index is 1.96.

With LPGFHAGTSALWRHLRSAHRRELE [G1L], the protein stability index was determined as 2.52.

For GPGEHAGTSALWRHLRSAHRRELE [F4E], the protein stability index was determined as 2.83.

In the case of GPGMHAGTSALWRHLRSAHRRELE [F4M], the protein stability index worked out at 2.68.

As for GPGRHAGTSALWRHLRSAHRRELE [F4R], the protein stability index came out at 4.36.

Take GPGFHAGTSALWRHLRSAHQRELE [R20Q]: the protein stability index is 2.31.

In the case of GPGFHAGTSALWRHLRSAHFRELE [R20F], the protein stability index stood at 2.36.

Consider GPGFHAGTSALWRHLRSAHGRELE [R20G], for which the protein stability index came to 2.23.

With GPGFHAGTSALWRHLRSAHTRELE [R20T], the protein stability index came to 1.92.

Regarding GPGFHAGTSALWRHLRSAHLRELE [R20L], the protein stability index was 1.59.

For GPGFRAGTSALWRHLRSAHRRELE [H5R], the protein stability index was 3.02.

Consider GPGFTAGTSALWRHLRSAHRRELE [H5T], for which the protein stability index stood at 3.16.

GPGFGAGTSALWRHLRSAHRRELE [H5G]: the protein stability index was found to be 2.62.

With GPGFHALTSALWRHLRSAHRRELE [G7L], the protein stability index is 1.45.

As to GPGFHASTSALWRHLRSAHRRELE [G7S], the protein stability index is 2.73.

On to GPGFHAITSALWRHLRSAHRRELE [G7I], for which the protein stability index was found to be 2.31.

Take GPGFHAGTSALWRHLRSAHRTELE [R21T]: the protein stability index came to 2.49.

In the case of GPGFHAGTSALWRHLRSAHRYELE [R21Y], the protein stability index was 2.14.

In the case of GPGFHAGTSALWRHLRSAHRCELE [R21C], the protein stability index stood at 4.08.

With GPGFHAGTSALWRHLRSAHRNELE [R21N], the protein stability index stood at 1.77.

GPGFHAGTSALWRHLRSAHRREEE [L23E]: the protein stability index stood at 2.07.

Turning to GPGFHAGTSALWRHLRSAHRREAE [L23A], the protein stability index came to 2.83.

On to GPGFHAGTSALWRHLRSAHRREHE [L23H], for which the protein stability index came out at 2.37.

For GPGFHAGTSALWRHLRSAHRREDE [L23D], the protein stability index amounted to 1.95.

In the case of GPGFHAGTSALWRHLRSCHRRELE [A18C], the protein stability index came to 1.79.

As to GPGFHAGTSALWRHLRSVHRRELE [A18V], the protein stability index came to 1.99.

As to GPGFHAGTSALWRHLRSWHRRELE [A18W], the protein stability index turned out to be 1.63.

For GPGFHAGTSALWRHLRSRHRRELE [A18R], the protein stability index turned out to be 3.02.

As to GPGFHAGTSALWRHLRSKHRRELE [A18K], the protein stability index came to 2.81.

Turning to GPGFHAGTSALWRHLRSGHRRELE [A18G], the protein stability index worked out at 1.89.

Regarding GPGFHAGTSALWRHLRSIHRRELE [A18I], the protein stability index is 2.12.

On to GPGFHAGNSALWRHLRSAHRRELE [T8N], for which the protein stability index worked out at 2.91.

On to GPGFHAGASALWRHLRSAHRRELE [T8A], for which the protein stability index turned out to be 1.75.

As to GPGFHAGTSALHRHLRSAHRRELE [W12H], the protein stability index was found to be 2.16.

GPGFHAGTSALPRHLRSAHRRELE [W12P]: the protein stability index is 2.14.

Regarding GPGFHAGTSALSRHLRSAHRRELE [W12S], the protein stability index was 2.61.

Regarding GPGFHAGTSALKRHLRSAHRRELE [W12K], the protein stability index worked out at 3.18.

In the case of GPGFHAGTSALIRHLRSAHRRELE [W12I], the protein stability index is 2.07.

On to GPGFHAGTSALWRHLRSACRRELE [H19C], for which the protein stability index was determined as 2.7.

In the case of GPGFHAGTSALWRHLRSANRRELE [H19N], the protein stability index is 1.58.

Consider GPGFHAGTSALWRHLRSAIRRELE [H19I], for which the protein stability index came to 2.3.

As to GPGFHDGTSALWRHLRSAHRRELE [A6D], the protein stability index worked out at 3.52.

As to GPGFHKGTSALWRHLRSAHRRELE [A6K], the protein stability index amounted to 2.3.

In the case of GPGFHIGTSALWRHLRSAHRRELE [A6I], the protein stability index amounted to 2.06.

Turning to GPGFHFGTSALWRHLRSAHRRELE [A6F], the protein stability index was 1.83.

Regarding GPGFHVGTSALWRHLRSAHRRELE [A6V], the protein stability index stood at 1.85.

With GPGFHYGTSALWRHLRSAHRRELE [A6Y], the protein stability index came out at 2.59.

GPGFHAGTSALWYHLRSAHRRELE [R13Y]: the protein stability index turned out to be 2.1.

On to GPGFHAGTSALWVHLRSAHRRELE [R13V], for which the protein stability index came to 1.88.

Regarding GQGFHAGTSALWRHLRSAHRRELE [P2Q], the protein stability index is 4.32.

GSGFHAGTSALWRHLRSAHRRELE [P2S]: the protein stability index was found to be 2.92.

Take GFGFHAGTSALWRHLRSAHRRELE [P2F]: the protein stability index was 1.89.

Take GHGFHAGTSALWRHLRSAHRRELE [P2H]: the protein stability index was 3.39.

For GNGFHAGTSALWRHLRSAHRRELE [P2N], the protein stability index stood at 3.5.

With GPGFHAGTSALWRTLRSAHRRELE [H14T], the protein stability index worked out at 2.28.

In the case of GPGFHAGTSALWRGLRSAHRRELE [H14G], the protein stability index was 2.76.

Turning to GPGFHAGTSALWRMLRSAHRRELE [H14M], the protein stability index stood at 1.99.

Turning to GPGFHAGTSALWRQLRSAHRRELE [H14Q], the protein stability index was 2.51.

Turning to GPGFHAGTSALWRSLRSAHRRELE [H14S], the protein stability index was 2.2.

With GPRFHAGTSALWRHLRSAHRRELE [G3R], the protein stability index turned out to be 3.96.

On to GPFFHAGTSALWRHLRSAHRRELE [G3F], for which the protein stability index came to 1.74.

Take GPKFHAGTSALWRHLRSAHRRELE [G3K]: the protein stability index turned out to be 3.26.

For GPGFHAGTSALWRHLRSAHRRKLE [E22K], the protein stability index was found to be 1.97.

For GPGFHAGTSALWRHLRSAHRRRLE [E22R], the protein stability index is 2.38.

For GPGFHAGTSALWRHLRSAHRRPLE [E22P], the protein stability index turned out to be 1.77.

In the case of GPGFHAGTSALWRHRRSAHRRELE [L15R], the protein stability index was found to be 3.45.

Consider GPGFHAGTMALWRHLRSAHRRELE [S9M], for which the protein stability index amounted to 2.44.

For GPGFHAGTFALWRHLRSAHRRELE [S9F], the protein stability index is 2.23.

For the variant GPGFHAGTKALWRHLRSAHRRELE [S9K], the protein stability index turned out to be 2.68.

As to GPGFHAGTRALWRHLRSAHRRELE [S9R], the protein stability index amounted to 3.03.

On to GPGFHAGTPALWRHLRSAHRRELE [S9P], for which the protein stability index came to 2.08.

GPGFHAGTAALWRHLRSAHRRELE [S9A]: the protein stability index worked out at 2.11.
